The numbers were not newly measured in publication PMC12112028, which cites them from elsewhere.

Series [1] deals with KISS1R (Homo sapiens) (UniProt Q969F8).
Series [2] has as its target KISS1R (Rattus norvegicus) (UniProt Q924U1).
Series [3] addresses KISS1R (Homo sapiens) (UniProt Q969F8). The source holds these as a separate data set.
The target of series [4] is KISS1R (Rattus norvegicus) (UniProt Q924U1). This is another data set of the same source.
Series [5] shares this target. As to the kind of experiment: competitive binding assay.
The target in series [6] is KISS1R (Homo sapiens) (UniProt Q969F8). This is another data set of the same source.
For series [7] the target is unchanged. As to the kind of experiment: competitive binding assay.

Read-outs that look alike come from different tables or passages of the source.

Chain of UniProt Q924U1 (Q924U1 whole entry): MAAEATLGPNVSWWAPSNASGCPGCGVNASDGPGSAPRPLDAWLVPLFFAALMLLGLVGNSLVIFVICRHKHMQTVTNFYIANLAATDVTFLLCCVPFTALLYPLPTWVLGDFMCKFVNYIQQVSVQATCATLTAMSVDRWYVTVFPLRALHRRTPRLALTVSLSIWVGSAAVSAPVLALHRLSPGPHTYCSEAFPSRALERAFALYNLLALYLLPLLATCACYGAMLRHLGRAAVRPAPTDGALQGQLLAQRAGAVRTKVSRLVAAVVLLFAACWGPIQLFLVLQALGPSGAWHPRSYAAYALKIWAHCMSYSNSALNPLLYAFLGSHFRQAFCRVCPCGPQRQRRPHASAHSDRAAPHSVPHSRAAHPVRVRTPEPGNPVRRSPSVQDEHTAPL
Chain of UniProt Q969F8 (Q969F8 whole entry): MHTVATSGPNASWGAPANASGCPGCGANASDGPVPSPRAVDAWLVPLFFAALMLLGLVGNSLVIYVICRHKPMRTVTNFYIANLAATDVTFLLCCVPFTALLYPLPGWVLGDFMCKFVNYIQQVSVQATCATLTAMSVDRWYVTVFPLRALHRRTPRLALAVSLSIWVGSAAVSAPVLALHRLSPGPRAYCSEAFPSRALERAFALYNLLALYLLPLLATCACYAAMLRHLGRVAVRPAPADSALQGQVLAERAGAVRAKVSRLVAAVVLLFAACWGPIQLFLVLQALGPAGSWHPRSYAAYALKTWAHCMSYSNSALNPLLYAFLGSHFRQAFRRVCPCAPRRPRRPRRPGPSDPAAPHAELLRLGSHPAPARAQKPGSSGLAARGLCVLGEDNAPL

For KP-10 (from UniProt Q15726), the Ki (commonly the dissociation constant of the complex between target and ligand, obtained from inhibition or displacement) was 2.33 nM with KISS1R (Homo sapiens) [1] and 1.59 nM in series [2]. The Kd (usually the equilibrium constant for the complex coming apart) with KISS1R (Homo sapiens) [3] is 1.9 nM; in series [4] it was 1 nM.
For KP-13 (from UniProt Q15726), the values for the Ki (in series [5]; with KISS1R (Homo sapiens) [6]) were 2.08 nM and 4.23 nM, respectively.
For KP-14 (from UniProt Q15726), the Ki was 1.65 nM in the series with KISS1R (Homo sapiens) [7] and 2.04 nM in series [5].
On to KP-54 (from UniProt Q15726), for which the Ki in the series with KISS1R (Homo sapiens) [7] is 1.45 nM; in series [5], 1.81 nM.
